Data on 3 molecules can be found in patent US7272508B2, “Small molecule mimetics of erythropoietin” (The Scripps Research Institute, priority 1996, dated 2007).

The chains are these.
T1: EPO receptor (Homo sapiens, UniProt P19235)
T1 sequence (P19235 25-508): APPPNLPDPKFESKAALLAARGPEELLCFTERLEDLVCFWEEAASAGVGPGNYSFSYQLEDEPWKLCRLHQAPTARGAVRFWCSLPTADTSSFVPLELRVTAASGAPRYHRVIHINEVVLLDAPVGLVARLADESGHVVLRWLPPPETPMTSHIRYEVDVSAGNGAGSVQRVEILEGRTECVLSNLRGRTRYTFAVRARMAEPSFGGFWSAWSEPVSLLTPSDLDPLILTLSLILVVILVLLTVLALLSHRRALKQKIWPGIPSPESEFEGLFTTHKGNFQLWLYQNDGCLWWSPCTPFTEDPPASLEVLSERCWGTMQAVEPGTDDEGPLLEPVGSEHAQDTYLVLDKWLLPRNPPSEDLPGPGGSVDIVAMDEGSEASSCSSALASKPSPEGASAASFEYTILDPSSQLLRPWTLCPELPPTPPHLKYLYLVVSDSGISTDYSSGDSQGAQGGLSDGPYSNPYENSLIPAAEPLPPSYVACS

T2: EBP (extracellular fragment of human EPO receptor, residues 1-225) (Homo sapiens, UniProt P19235)
T2 construct: consisting of residues 1-225, was expressed in Escherichia coli; made in house; host or cells: Escherichia coli
T2 sequence (P19235 25-249): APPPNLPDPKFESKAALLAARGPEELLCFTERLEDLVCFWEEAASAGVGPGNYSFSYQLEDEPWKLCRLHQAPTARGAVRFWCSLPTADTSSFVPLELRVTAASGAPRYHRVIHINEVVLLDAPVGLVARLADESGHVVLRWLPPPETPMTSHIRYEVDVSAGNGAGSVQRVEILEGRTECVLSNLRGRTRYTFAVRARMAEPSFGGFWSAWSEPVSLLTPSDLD

B1: EPO binding protein (EBP), extracellular fragment of human EPO receptor, residues 1-225 (receptor, UniProt P19235 25-249, looked up)
chain: T2 sequence (P19235 25-249)
notes: range 1-225; they probably count on the mature receptor without signal peptide; Two EBP molecules stand in the asymmetric unit with two peptides; also called EBP1; EBP2

One data set has as its target T1, EPO receptor. Briefly: receptor binding assays, competition with EPO.
In data set [1] the test system is cell lines engineered to be responsive to EPO. Briefly: cellular proliferation of cell lines engineered to be responsive to EPO. Type of data set: cell-based.
Another data set relates to EPO responsive cells. Put plainly: phosphorylation events and cell cycle progression in EPO responsive cells. Type of data set: cell-based.
For data set [2], the system named is nascent red blood cell production. Put plainly: in vivo assays of nascent red blood cell production. The note with it: mice; two different in vivo assays of nascent red blood cell production.
In data set [3] the target is T2, EBP (extracellular fragment of human EPO receptor, residues 1-225). Briefly: DPDPB crosslinking of EBP in solution (peptide-dependent dimerization). Type of data set: biochemical. The note with it: co-incubation of EMP1, DPDPB and EBP; no significant dimer in the absence of peptide. The procedure:
To explore the interaction of EMP1 with EBP in solution we employed a bifunctionalsulphydryl reactive crosslinker DPDPB, [1,4-di-(2′-pyridyldithio propionamido) butane], in an attempt to stabilize a peptide-dependent dimeric structure. […] A dimeric EBP product is formed by co-incubation of EMP1, DPDPB and EBP. The amount of dimeric product increases with peptide concentration and no significant dimer product is observed in the absence of peptide. DPDPB-crosslinked products formed through disulfide-exchange reactions should be readily reversible by reduction as is seen for the covalently-linked EMP1-mediated dimer. […] The Cys^181 residues in D2 of the EBP dimer are 20.7 Å apart (Sγ-Sγ distance) which approximates the 16 Å length (and approximately 2 Å in bond length at each end) of the DPDPB cross-linker.

Data set [4] deals with the molecule itself. Put plainly: DPDPB sulphydryl crosslinking of EBP in solution.
The target in data set [5] is B1. Put plainly: DPDPB crosslinking in solution; dimeric product increases with peptide concentration.

Positions of bridges follow the written chain, without caps; N, C: chain ends. No end group written: not given here.

“GGTYSCHFGPLTWVCKPQGG (disulfide 6-15 (inferred)) [EMP1]”: in the data set with EPO receptor, the “competition with EPO in receptor binding assays” value is recorded as “competes with EPO”. In data set [1], the “induction of cellular proliferation” value is recorded as “induces cellular proliferation”. Besides, in the data set with EPO responsive cells, the “cascade of phosphorylation events and cell cycle progression” value is “induce a similar cascade of phosphorylation events and cell cycle progression”. Further, in data set [2], the erythropoietic effects entry is reported as “significant erythropoietic effects”. The “formation of dimeric EBP product” value in data set [3] was “mediates formation of a soluble EBP dimer complex in solution”.

For the molecule B1, the binding result in data set [4] is “no binding”.

GGTYSCHFGPLTWVCKPQGG (disulfide 6-15, also called RWJ 61233; peptide-2) [EMP1 (EPO Mimetic Peptide 1)]: the binding result in data set [5] is “binds”.
